The supplement of paper PMC7125110
± gives the standard error. For some assays here: Variants at the floor of the assay were thinned out.

B1: glmS ribozyme (parent)
chain: AUAAAAGCGCCAGAACUACAGAAAUGUAGUUGACGAGGAGGAGGUUUAUCGAAUUUUCGGCGGAUGCCUCCAAA

How the values were obtained:
Details in all cases: with glucosamine-6-phosphate
[1] = variants of: B1; assay: kcat; higher = faster cleavage; RNA array
How it was run: (§1)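 Barcoded ribozyme variants on sequenced MiSeq chips were transcribed in situ by E. coli RNA polymerase and followed at 37 °C through a hybridised Cy3 probe. Glucosamine-6-phosphate at 40 μM to 10 mM in HEPES/KCl/Mg(OAc)2 buffer was flowed in, and tiles were imaged over ~14 h. Signals were normalised to baseline and to non-cleaving reference variants, and per-tile medians were fit to one- or two-exponential decays to give kobs. Weighted Michaelis–Menten fits across concentrations gave kcat and KM.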

[2] = variants of: B1; assay: KM; higher = weaker cofactor use; RNA array
How it was run: as §1

[3] = variants of: B1; assay: self-cleavage kobs at 40 uM GlcN6P; higher = faster cleavage; RNA array
How it was run: as §1

[4] = variants of: B1; assay: self-cleavage kobs at 160 uM GlcN6P; higher = faster cleavage; RNA array
How it was run: as §1

[5] = variants of: B1; assay: self-cleavage kobs at 640 uM GlcN6P; higher = faster cleavage; RNA array
How it was run: as §1

[6] = variants of: B1; assay: self-cleavage kobs at 2500 uM GlcN6P; higher = faster cleavage; RNA array
How it was run: as §1

[7] = variants of: B1; assay: self-cleavage kobs at 10000 uM GlcN6P; higher = faster cleavage; RNA array
How it was run: as §1

Row | Variant | kcat [1] [s⁻¹] | KM [2] [µM] | self-cleavage kobs at 40 uM GlcN6P [3] [s⁻¹] | self-cleavage kobs at 160 uM GlcN6P [4] [s⁻¹] | self-cleavage kobs at 640 uM GlcN6P [5] [s⁻¹] | self-cleavage kobs at 2500 uM GlcN6P [6] [s⁻¹] | self-cleavage kobs at 10000 uM GlcN6P [7] [s⁻¹]
1 | G29C | 0.0045 ± 0.0012 | 2300 ± 720 | 8.88e-05 ± 1.6e-06 | 0.000212 ± 8.4e-06 | 0.000839 ± 4.1e-05 | 0.00239 ± 0.0001 | 0.00377 ± 0.00011
2 | G29U | 0.00859 ± 0.00066 | 1570 ± 140 | 0.000218 ± 3.7e-06 | 0.000677 ± 5.2e-05 | 0.00232 ± 8.4e-05 | 0.01 ± 0.0028 | 0.00757 ± 0.00024
3 | G29A | 0.00814 ± 0.00078 | 1590 ± 200 | 0.000207 ± 4.5e-06 | 0.000639 ± 6.2e-05 | 0.00201 ± 9.3e-05 | 0.00558 ± 0.00024 | 0.00697 ± 0.00023
4 | U30A U55A C71U | 0.00347 ± 0.0015 |  | 0.000138 ± 3.7e-05 |  | 0.00113 ± 0.00035 | 0.00197 ± 0.00068 | 0.00566 ± 0.0018
5 | G26U C67G | 0.000379 ± 7.2e-05 | 901 ± 420 |  |  | 0.000245 ± 8.1e-05 | 0.000254 ± 5.2e-05 | 0.000395 ± 0.00012
6 | C16U U45C | 0.00254 ± 0.00049 | 2290 ± 700 | 4.44e-05 ± 1.1e-05 | 0.000307 ± 0.00014 | 0.000496 ± 0.0001 | 0.00224 ± 0.0007 | 0.00203 ± 0.0003
